In paper PMC11998537, “Restriction of influenza A virus replication by host DCAF7-CRL4B axis” (Journal of Virology, 2025):

Assays:
[1] = target: T1, His-PB2 (influenza A/Puerto Rico/8/1934 (PR8, …, UniProt P03428 1-759)); assay: pull-down; details: both partners purified
T1 construct: source: E. coli BL21, purified

[2] = target: T2, His-PB1 (influenza A/Puerto Rico/8/1934 (PR8, …, UniProt P03431 1-757)); assay: pull-down; details: both partners purified
T2 construct: source: E. coli BL21, purified

B1: GST-DCAF7 (natural protein, human, UniProt P61962 1-342, looked up)
chain: MSLHGKRKEIYKYEAPWTVYAMNWSVRPDKRFRLALGSFVEEYNNKVQLVGLDEESSEFICRNTFDHPYPTTKLMWIPDTKGVYPDLLATSGDYLRVWRVGETETRLECLLNNNKNSDFCAPLTSFDWNEVDPYLLGTSSIDTTCTIWGLETGQVLGRVNLVSGHVKTQLIAHDKEVYDIAFSRAGGGRDMFASVGADGSVRMFDLRHLEHSTIIYEDPQHHPLLRLCWNKQDPNYLATMAMDGMEVVILDVRVPCTPVARLNNHRACVNGIAWAPHSSCHICTAADDHQALIWDIQQMPRAIEDPILAYTAEGEINNVQWASTQPDWIAICYNNCLEILRV
notes: source: E. coli BL21, purified
B1: binds [1]; binds [2].
